Results published in the RNAGym collection of RNA variant scans (doi:10.1073/pnas.2313332121).

B1: TPR t1 (parent)
chain: GACCAAUCUGCCCUCAGAGCUCGAGAACAUCUUCGGAUGCAGAGGAGGCAGGCUUCGGUGGCGCGAUAGCGCCAACGUCCUCAACCUCCAAUGCAUCCCACCACAUGAUGAUGCCUGAAGAGCCUUGGUUUUUUG

Variants of: B1
Test: polymerase ribozyme fitness, log enrichment relative to wild type (log ratio); higher = more active; in vitro selection for triplet polymerase activity
In short: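 In triplicate, a single round of in vitro selection was run on each mutant library, PCR-built and transcribed, covering one subunit of a heterodimeric triplet polymerase ribozyme. Frozen incubation at −7 °C followed annealing with a biotinylated primer, partner subunit and triplets, and extended constructs were then gel-excised, streptavidin-captured and taken through RT-PCR. Fitness is the logarithm of genotype enrichment over wild-type enrichment, from inverse-variance-weighted replicate averages of Illumina-sequenced inputs and outputs. […] only genotypes with ≥10 input reads and ≥1 read per output were kept.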

Variant | polymerase ribozyme fitness (log ratio)
C34U G44C U87A C89G C115A | -4.92
G36A C56A | -1.03
G36U C115U | -2.01
G35U C70U C73A | -7.04
A37C G44A C53U C104U | -1.64
C34A C76A | -4.09
G36U U112G G113U | -3.55
G36C G45C C98U | -3.33
A37G C72G C73U A74U | -6.02
U33G C34G A103U | -6.38
A37C A83U | -0.456
G35U C123A | -3.61
G35U C123U | -2.85
A37C G63U G122U | -2.81
C34G C53U | -5.89
C34G U106A | -4.72
C34A C40U C49A C62U U96G | -5.57
G36U C56A | -1.83
C34G U87A | -5.65
G36U G60U A111U | -2.87
G35A G61C | -5.94

Variant | polymerase ribozyme fitness (log ratio)
A37C U55C | -1.17
G35U A100U | -5.66
U33C A90C | -6.14
A37C A103C | -4.98
A37C A121U | 1.62
C34A G36U | -4.2
U33C C99G U109A | -7.26
A37C U38G | -1.27
G36U U125A U133A | -2.46
C34G C70U U96A A103U A121C U132C | -7.51
C34U U125A | -4.8
C34A G48C G77A | -2.78
C34U G60U C99U | -3.7
G36A C64U C72A U106A | -0.401
G35A A37U U87G | -5.66
C34G A83G | -6.49
G35A C72U C98A G117U | -7.49
C34A C80U G127U | -4.5
G36A A84C G117A | -2.24
G36U C56U C115G | -3.57
C34U U59A U106A U109A G120A | -5.08

Variant | polymerase ribozyme fitness (log ratio)
C34A G60A C72G C88U | -6.11
A37C A91G | -2.03
G36C U78G | -1.1
G35A A74C C101U | -4.16
G36U G39U G44A | -4.17
G36A C53A U54G G120C | 0.74
G36U G117U | -3.26
C34U G113C | -4.95
C34G C89U | -7.42
U33G G52C C64G U78A C98A U112G U116G | -7.08
A37G A83C C88G U130G | -4.95
C34G C79U | -5.43
G36U A111U | -3.05
G35C A46C C97U | -6.04
C34A C88A U106C C114A | -6.05
A37G C76G G113A | -1.57
G36A G71A C94A | -5.5
G36C C56U | -0.42
G36A G71U U78A | -1.53
A37G C73G U109A | -7.2
A37C U67C U81C C123A | -5.95

Variant | polymerase ribozyme fitness (log ratio)
G35U C72A | -5.07
C34U C86U C104U C114U | -4.34
G36A G48U G63U C79G | -5.18
A37G C49U C82A U87C U106G U133G | -2.13
G36U U112G | -1.32
G36A C97G U112G C115U | -5.56
U33G A50G A121C | -4.43
G35A G69C U87G | -5.37
G36U A83C C104U U106G | -3.91
G36C A100U A111G | -1.04
G35U G61A C98G G107C C115A G120A | -7.51
G36C G60U A118U | -0.591
A37C C64U C115G | -1.35
A37G C70G | -3.43
G36C U59A G69C C88A C101A | -2.89
C34A C104U | -2.35
G36U C80A | -3.93
G36U A118U | -1.08
C34A U55C | -3.18
G35C C88A | -5.61
G36A C73G C101A U106C | -3.26
